Common to all, as to assay: SPR
Background: In SPR one partner is held on a chip, and binding of the other changes the refractive index at the surface.

For test [1], the target named is Bcl-2ΔTM-His6 (unphosphorylated) (UniProt P10415 1-219).
The target of test [2] is GST-Bcl-2ΔTM S70E (UniProt P10415 1-219, S70E).
Test [3] has as its target GST-Bcl-2ΔTM (wt) (UniProt P10415 1-219).

These results are taken from article PMC3910374 (Cancer research, 2013).

Sequence of Bcl-2ΔTM-His6 (unphosphorylated) (P10415 1-219, stated change not applied): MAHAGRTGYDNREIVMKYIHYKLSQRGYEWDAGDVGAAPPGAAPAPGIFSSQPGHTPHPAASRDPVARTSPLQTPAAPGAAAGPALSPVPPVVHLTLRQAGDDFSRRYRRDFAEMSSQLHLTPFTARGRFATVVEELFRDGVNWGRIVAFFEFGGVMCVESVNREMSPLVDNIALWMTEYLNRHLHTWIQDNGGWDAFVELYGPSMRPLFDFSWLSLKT
Sequence of GST-Bcl-2ΔTM (wt) (P10415 1-219, stated change not applied): as above
Sequence of GST-Bcl-2ΔTM S70E (P10415 1-219 S70E): as the sequence (P10415 1-219, stated change not applied) above, with S70E counted along it

B1: His6-tagged BakΔTM (domain or fragment, UniProt Q16611 1-186, looked up)
chain: MASGQGPGPPRQECGEPALPSASEEQVAQDTEEVFRSYVFYRHQQEQEAEGVAAPADPEMVTLPLQPSSTMGQVGRQLAIIGDDINRRYDSEFQTMLQHLQPTAENAYEYFTKIATSLFESGINWGRVVALLGFGYRLALHVYQHGLTGFLGQVTRFVVDFMLHHCIARWIAQRGGWVAALNLGNG
With B1, the Kd (commonly the constant that tells how readily two partners part at equilibrium) in test [1] was roughly 150 nM. In addition, the binding result in test [2] is “binds”.
In the case of RPEIWIAQELRRIGDEFNAYYARRVF [26-mer Bim BH3 peptide], the equilibrium dissociation constant (Kd) in test [3] was determined as 7 nM.
